The experiment has as its target EBOV GP displayed on vesicular stomatitis virus (VSV) pseudovirions (Ebola virus) (UniProt Q05320). In words: cell-based or functional assay.

Sequence of EBOV GP displayed on vesicular stomatitis virus (VSV) pseudovirions (Ebola virus) (Q05320 33-676 limits assumed): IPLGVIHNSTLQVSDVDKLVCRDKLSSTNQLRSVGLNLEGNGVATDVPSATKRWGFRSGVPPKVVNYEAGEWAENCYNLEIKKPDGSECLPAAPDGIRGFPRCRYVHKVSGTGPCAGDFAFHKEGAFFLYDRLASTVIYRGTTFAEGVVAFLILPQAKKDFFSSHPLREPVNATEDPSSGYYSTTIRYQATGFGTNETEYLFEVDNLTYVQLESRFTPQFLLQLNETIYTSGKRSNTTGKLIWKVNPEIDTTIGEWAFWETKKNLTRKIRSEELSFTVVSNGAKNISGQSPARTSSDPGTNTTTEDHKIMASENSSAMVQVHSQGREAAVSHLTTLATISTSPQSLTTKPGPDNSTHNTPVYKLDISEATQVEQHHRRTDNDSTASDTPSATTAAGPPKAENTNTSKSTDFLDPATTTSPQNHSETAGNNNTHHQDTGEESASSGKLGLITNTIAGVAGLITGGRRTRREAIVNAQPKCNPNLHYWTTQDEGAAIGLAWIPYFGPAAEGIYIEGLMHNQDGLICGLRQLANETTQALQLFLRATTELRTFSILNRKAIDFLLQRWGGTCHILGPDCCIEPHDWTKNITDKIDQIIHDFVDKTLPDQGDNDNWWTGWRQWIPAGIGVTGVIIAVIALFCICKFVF

KZ52 (antibody) yielded an IC50, neutralization of VSV pseudotyped to display EBOV GP of 0.08 µg/mL.

Source of the values: patent US20240109954A1.
